Numbered stars: 1 amine (or outer) side, 2 acyl side, 3 side chain; on linkers, the order of the positions; unused ones are H or OH. Bridge positions count the residues as written; N and C are the ends. Side chains are listed from the residue outwards. Ends that are not written are not given here. * marks the point of attachment. C20 diacid = O=C(O)CCCCCCCCCCCCCCCCCCC(=O)*; γGlu = O=C(O)[C@H](CCC(=O)[*:2])N[*:1]; AEEA = NCCOCCOCC(=O)O
T1: human amylin receptor (amylin 3(a) receptor: human calcitonin receptor co-expressed with RAMP-3) (human, UniProt P30988 25-474; O60896 24-148, limits assumed)
T1 sequence (looked up) 1: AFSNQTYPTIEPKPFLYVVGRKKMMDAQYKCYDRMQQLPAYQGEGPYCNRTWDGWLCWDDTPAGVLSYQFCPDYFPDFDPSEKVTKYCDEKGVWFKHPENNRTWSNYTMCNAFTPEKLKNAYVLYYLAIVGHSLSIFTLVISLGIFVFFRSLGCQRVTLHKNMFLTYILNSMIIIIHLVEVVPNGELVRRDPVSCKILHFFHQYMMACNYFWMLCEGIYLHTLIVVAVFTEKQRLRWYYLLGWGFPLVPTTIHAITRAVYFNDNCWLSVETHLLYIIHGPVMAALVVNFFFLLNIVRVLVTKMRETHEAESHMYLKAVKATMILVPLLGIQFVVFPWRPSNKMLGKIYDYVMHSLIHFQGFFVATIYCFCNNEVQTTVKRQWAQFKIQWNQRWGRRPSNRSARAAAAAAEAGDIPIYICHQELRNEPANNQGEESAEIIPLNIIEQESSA
T1 sequence (looked up) 2: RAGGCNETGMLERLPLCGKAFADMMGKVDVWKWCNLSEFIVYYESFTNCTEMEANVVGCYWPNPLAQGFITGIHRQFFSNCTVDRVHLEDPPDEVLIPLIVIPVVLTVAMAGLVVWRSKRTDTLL

T2: human calcitonin receptor (human, UniProt P30988 25-474)
T2 sequence (looked up): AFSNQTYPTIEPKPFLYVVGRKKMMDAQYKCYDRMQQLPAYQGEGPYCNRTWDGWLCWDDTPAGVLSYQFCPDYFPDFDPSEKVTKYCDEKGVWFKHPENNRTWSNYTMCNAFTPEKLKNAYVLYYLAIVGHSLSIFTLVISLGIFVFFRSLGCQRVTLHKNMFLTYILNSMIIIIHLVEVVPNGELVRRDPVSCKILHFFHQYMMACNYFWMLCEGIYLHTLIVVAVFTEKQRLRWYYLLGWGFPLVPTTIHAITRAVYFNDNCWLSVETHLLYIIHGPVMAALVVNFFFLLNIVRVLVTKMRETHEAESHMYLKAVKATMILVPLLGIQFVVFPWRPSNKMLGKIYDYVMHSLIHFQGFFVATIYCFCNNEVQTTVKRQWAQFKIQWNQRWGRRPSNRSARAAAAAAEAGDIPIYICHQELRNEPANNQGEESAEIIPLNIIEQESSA


How the values were obtained:
[1] = target: T1, human amylin receptor (amylin 3(a) …); test: cell-based or functional assay
[2] = target: T2, human calcitonin receptor; test: cell-based or functional assay

Binder | hAmylin-R funct. EC50 [1] | hCTR funct. EC50 [2]
K([AEEA-γGlu-C20 diacid])CNTATCATQRLANFLRHSSPNFGAIPSSTNVGRNTY-NH2 (disulfide 2-7; N-terminus assumed; SMILES CC[C@H](C)[C@H](NC(=O)[C@H](C)NC(=O)CNC(=O)[C@H](Cc1ccccc1)NC(=O)[C@H](CC(N)=O)NC(=O)[C@@H]1CCCN1C(=O)[C@H](CO)NC(=O)[C@H](CO)NC(=O)[C@H](Cc1c[nH]cn1)NC(=O)[C@H](CCCNC(=N)N)NC(=O)[C@H](CC(C)C)NC(=O)[C@H](Cc1ccccc1)NC(=O)[C@H](CC(N)=O)NC(=O)[C@H](C)NC(=O)[C@H](CC(C)C)NC(=O)[C@H](CCCNC(=N)N)NC(=O)[C@H](CCC(N)=O)NC(=O)[C@@H](NC(=O)[C@H](C)NC(=O)[C@@H]1CSSC[C@H](NC(=O)[C@@H](N)CCCCNC(=O)COCCOCCNC(=O)CC[C@H](NC(=O)CCCCCCCCCCCCCCCCCCC(=O)O)C(=O)O)C(=O)N[C@@H](CC(N)=O)C(=O)N[C@@H]([C@@H](C)O)C(=O)N[C@@H](C)C(=O)N[C@@H]([C@@H](C)O)C(=O)N1)[C@@H](C)O)C(=O)N1CCC[C@H]1C(=O)N[C@@H](CO)C(=O)N[C@@H](CO)C(=O)N[C@H](C(=O)N[C@@H](CC(N)=O)C(=O)N[C@H](C(=O)NCC(=O)N[C@@H](CCCNC(=N)N)C(=O)N[C@@H](CC(N)=O)C(=O)N[C@H](C(=O)N[C@@H](Cc1ccc(O)cc1)C(N)=O)[C@@H](C)O)C(C)C)[C@@H](C)O, also called compound 78) | 0.316 nM | 8.17 nM
K([AEEA-γGlu-C20 diacid])CNTATCATQRLANFLRHSSPNFGAIPPSTNVGPNTY-NH2 (disulfide 2-7; N-terminus assumed; SMILES CC[C@H](C)[C@H](NC(=O)[C@H](C)NC(=O)CNC(=O)[C@H](Cc1ccccc1)NC(=O)[C@H](CC(N)=O)NC(=O)[C@@H]1CCCN1C(=O)[C@H](CO)NC(=O)[C@H](CO)NC(=O)[C@H](Cc1c[nH]cn1)NC(=O)[C@H](CCCNC(=N)N)NC(=O)[C@H](CC(C)C)NC(=O)[C@H](Cc1ccccc1)NC(=O)[C@H](CC(N)=O)NC(=O)[C@H](C)NC(=O)[C@H](CC(C)C)NC(=O)[C@H](CCCNC(=N)N)NC(=O)[C@H](CCC(N)=O)NC(=O)[C@@H](NC(=O)[C@H](C)NC(=O)[C@@H]1CSSC[C@H](NC(=O)[C@@H](N)CCCCNC(=O)COCCOCCNC(=O)CC[C@H](NC(=O)CCCCCCCCCCCCCCCCCCC(=O)O)C(=O)O)C(=O)N[C@@H](CC(N)=O)C(=O)N[C@@H]([C@@H](C)O)C(=O)N[C@@H](C)C(=O)N[C@@H]([C@@H](C)O)C(=O)N1)[C@@H](C)O)C(=O)N1CCC[C@H]1C(=O)N1CCC[C@H]1C(=O)N[C@@H](CO)C(=O)N[C@H](C(=O)N[C@@H](CC(N)=O)C(=O)N[C@H](C(=O)NCC(=O)N1CCC[C@H]1C(=O)N[C@@H](CC(N)=O)C(=O)N[C@H](C(=O)N[C@@H](Cc1ccc(O)cc1)C(N)=O)[C@@H](C)O)C(C)C)[C@@H](C)O, also called compound 55) | 0.068 nM | 0.731 nM
K([AEEA-γGlu-C20 diacid])CNTATCATQRLANFLRHSSPNFGAIPSPTNVGPNTY-NH2 (disulfide 2-7; N-terminus assumed; SMILES CC[C@H](C)[C@H](NC(=O)[C@H](C)NC(=O)CNC(=O)[C@H](Cc1ccccc1)NC(=O)[C@H](CC(N)=O)NC(=O)[C@@H]1CCCN1C(=O)[C@H](CO)NC(=O)[C@H](CO)NC(=O)[C@H](Cc1c[nH]cn1)NC(=O)[C@H](CCCNC(=N)N)NC(=O)[C@H](CC(C)C)NC(=O)[C@H](Cc1ccccc1)NC(=O)[C@H](CC(N)=O)NC(=O)[C@H](C)NC(=O)[C@H](CC(C)C)NC(=O)[C@H](CCCNC(=N)N)NC(=O)[C@H](CCC(N)=O)NC(=O)[C@@H](NC(=O)[C@H](C)NC(=O)[C@@H]1CSSC[C@H](NC(=O)[C@@H](N)CCCCNC(=O)COCCOCCNC(=O)CC[C@H](NC(=O)CCCCCCCCCCCCCCCCCCC(=O)O)C(=O)O)C(=O)N[C@@H](CC(N)=O)C(=O)N[C@@H]([C@@H](C)O)C(=O)N[C@@H](C)C(=O)N[C@@H]([C@@H](C)O)C(=O)N1)[C@@H](C)O)C(=O)N1CCC[C@H]1C(=O)N[C@@H](CO)C(=O)N1CCC[C@H]1C(=O)N[C@H](C(=O)N[C@@H](CC(N)=O)C(=O)N[C@H](C(=O)NCC(=O)N1CCC[C@H]1C(=O)N[C@@H](CC(N)=O)C(=O)N[C@H](C(=O)N[C@@H](Cc1ccc(O)cc1)C(N)=O)[C@@H](C)O)C(C)C)[C@@H](C)O, also called compound 56) | 0.102 nM | 0.506 nM
K([AEEA-γGlu-C20 diacid])CNTATCATQRLANFLRHSSPNFGAIPSSTNVGHNTY-NH2 (disulfide 2-7; N-terminus assumed; SMILES CC[C@H](C)[C@H](NC(=O)[C@H](C)NC(=O)CNC(=O)[C@H](Cc1ccccc1)NC(=O)[C@H](CC(N)=O)NC(=O)[C@@H]1CCCN1C(=O)[C@H](CO)NC(=O)[C@H](CO)NC(=O)[C@H](Cc1c[nH]cn1)NC(=O)[C@H](CCCNC(=N)N)NC(=O)[C@H](CC(C)C)NC(=O)[C@H](Cc1ccccc1)NC(=O)[C@H](CC(N)=O)NC(=O)[C@H](C)NC(=O)[C@H](CC(C)C)NC(=O)[C@H](CCCNC(=N)N)NC(=O)[C@H](CCC(N)=O)NC(=O)[C@@H](NC(=O)[C@H](C)NC(=O)[C@@H]1CSSC[C@H](NC(=O)[C@@H](N)CCCCNC(=O)COCCOCCNC(=O)CC[C@H](NC(=O)CCCCCCCCCCCCCCCCCCC(=O)O)C(=O)O)C(=O)N[C@@H](CC(N)=O)C(=O)N[C@@H]([C@@H](C)O)C(=O)N[C@@H](C)C(=O)N[C@@H]([C@@H](C)O)C(=O)N1)[C@@H](C)O)C(=O)N1CCC[C@H]1C(=O)N[C@@H](CO)C(=O)N[C@@H](CO)C(=O)N[C@H](C(=O)N[C@@H](CC(N)=O)C(=O)N[C@H](C(=O)NCC(=O)N[C@@H](Cc1c[nH]cn1)C(=O)N[C@@H](CC(N)=O)C(=O)N[C@H](C(=O)N[C@@H](Cc1ccc(O)cc1)C(N)=O)[C@@H](C)O)C(C)C)[C@@H](C)O, also called compound 76) | 0.297 nM | 7.37 nM

Results, then the binder that gave them:

hAmylin-R funct. EC50 [1] | hCTR funct. EC50 [2] | Binder
0.089 nM | 3.12 nM | K([AEEA-γGlu-C20 diacid])CNTATCATQRLANFLRHSSPNFGAIPSSTPVGSHTY-NH2 (disulfide 2-7; N-terminus assumed; SMILES CC[C@H](C)[C@H](NC(=O)[C@H](C)NC(=O)CNC(=O)[C@H](Cc1ccccc1)NC(=O)[C@H](CC(N)=O)NC(=O)[C@@H]1CCCN1C(=O)[C@H](CO)NC(=O)[C@H](CO)NC(=O)[C@H](Cc1c[nH]cn1)NC(=O)[C@H](CCCNC(=N)N)NC(=O)[C@H](CC(C)C)NC(=O)[C@H](Cc1ccccc1)NC(=O)[C@H](CC(N)=O)NC(=O)[C@H](C)NC(=O)[C@H](CC(C)C)NC(=O)[C@H](CCCNC(=N)N)NC(=O)[C@H](CCC(N)=O)NC(=O)[C@@H](NC(=O)[C@H](C)NC(=O)[C@@H]1CSSC[C@H](NC(=O)[C@@H](N)CCCCNC(=O)COCCOCCNC(=O)CC[C@H](NC(=O)CCCCCCCCCCCCCCCCCCC(=O)O)C(=O)O)C(=O)N[C@@H](CC(N)=O)C(=O)N[C@@H]([C@@H](C)O)C(=O)N[C@@H](C)C(=O)N[C@@H]([C@@H](C)O)C(=O)N1)[C@@H](C)O)C(=O)N1CCC[C@H]1C(=O)N[C@@H](CO)C(=O)N[C@@H](CO)C(=O)N[C@H](C(=O)N1CCC[C@H]1C(=O)N[C@H](C(=O)NCC(=O)N[C@@H](CO)C(=O)N[C@@H](Cc1c[nH]cn1)C(=O)N[C@H](C(=O)N[C@@H](Cc1ccc(O)cc1)C(N)=O)[C@@H](C)O)C(C)C)[C@@H](C)O, also called compound 57)
0.047 nM | 1.03 nM | K([AEEA-γGlu-C20 diacid])CNTATCATQRLANFLRHSSPNFGAIPSSTNVGPHTY-NH2 (disulfide 2-7; N-terminus assumed; SMILES CC[C@H](C)[C@H](NC(=O)[C@H](C)NC(=O)CNC(=O)[C@H](Cc1ccccc1)NC(=O)[C@H](CC(N)=O)NC(=O)[C@@H]1CCCN1C(=O)[C@H](CO)NC(=O)[C@H](CO)NC(=O)[C@H](Cc1c[nH]cn1)NC(=O)[C@H](CCCNC(=N)N)NC(=O)[C@H](CC(C)C)NC(=O)[C@H](Cc1ccccc1)NC(=O)[C@H](CC(N)=O)NC(=O)[C@H](C)NC(=O)[C@H](CC(C)C)NC(=O)[C@H](CCCNC(=N)N)NC(=O)[C@H](CCC(N)=O)NC(=O)[C@@H](NC(=O)[C@H](C)NC(=O)[C@@H]1CSSC[C@H](NC(=O)[C@@H](N)CCCCNC(=O)COCCOCCNC(=O)CC[C@H](NC(=O)CCCCCCCCCCCCCCCCCCC(=O)O)C(=O)O)C(=O)N[C@@H](CC(N)=O)C(=O)N[C@@H]([C@@H](C)O)C(=O)N[C@@H](C)C(=O)N[C@@H]([C@@H](C)O)C(=O)N1)[C@@H](C)O)C(=O)N1CCC[C@H]1C(=O)N[C@@H](CO)C(=O)N[C@@H](CO)C(=O)N[C@H](C(=O)N[C@@H](CC(N)=O)C(=O)N[C@H](C(=O)NCC(=O)N1CCC[C@H]1C(=O)N[C@@H](Cc1c[nH]cn1)C(=O)N[C@H](C(=O)N[C@@H](Cc1ccc(O)cc1)C(N)=O)[C@@H](C)O)C(C)C)[C@@H](C)O, also called compound 58)

— US20140087995A1 (published 2014)
